In the nanobody polyreactivity screen of Harvey et al. (2022):

Test: yeast display, Sf9 membrane polyspecificity reagent, FACS + sequencing; frameworks hold sequencing errors
Summary of the method: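 Polyreactivity labels are assigned by the sorting gate from which each nanobody was recovered. The gates were low and high (top ~1%), set on anti-HA fluorescence for expression and streptavidin fluorescence for reagent binding. Before sorting, galactose-induced (36–48 hours) yeast display cells were stained for 1 hour at 4 °C with 10% biotinylated, detergent-solubilized Sf9 membrane reagent.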

Sequence	polyreactivity (PSR sort gate)
QVQLVESGGGLVQAGGSLRLSCAASGSTFRTYTMGWYRQAPGKERELVAAISSIGSSTFYADSVKGRFTISRDNAKNTVYLQMISLKPEDTAVYYCAAVRRGGGVIYDYWGQGTQVTVSS	high polyreactivity
QVQLVESGGGLVQAGGSLRLSCAASGGTLWVNTMGWYRQAPGKERELVAAISRRGGSTYYADSVKGRFTISRDNAKNTVYLQKNSLKPEDTAVYYCAKGYSSHYWWAYDSWGQGTQVTVSS	high polyreactivity
QVQLVESGGGLVQAGGSLRLSCAASGRTFKYYAMGWYRQAPGKERELVAAITSTGGSTYYADSVKGRFTISRDNAKNTVYLQMHSLKPEDTAVYYCNRYTQYRDRSDNHWGQGTQVTVSS	high polyreactivity
QVQLVESGGGLVQAGGSLRLSCAASGFIFTPNAMGWYRQAPGKERELVATISWRGTGTYYADSVKGRFTISRDTAKNTVYLQMNSLNPVDTAVYYCAVRFYSFHYYRIYTYSVTYDYWGQGTQVTVSS	high polyreactivity
QVQLVESGGGLVQAGGSLRLSCAASGFTFTYYAMGWYRHAPGKERELVAAITNSGGTTYYADSVKGRFTISRDNAKNTVYLQMNSLKPEDTAVYYCAAVPYYVLARSFYRYGYWGQGTQVTVSS	low polyreactivity
QVQLVESGGGLVQAGGSLRLSCAASGFTFEVNAMGWYRQAPGKERELVAAINRGGSTYYADSVKGRFTISRDNAKNTVYFQMNSLKPEDTAVYYCNRDYEYPTYPHDYWGQGTQVTVSS	low polyreactivity
QVQLVESGGGIVQAGGSLRLSCAASGRICIINAMGWYRQATGKERELVAAISTSGGRTYYADSVKGRFTISRDNAKNTVYLQKNSLKPVDTAVYYCNAGRGYRYYRSVGSSPYEYWGQGTQVTVSS	high polyreactivity
QVQLVESGGGLVQAGGSLRISCAASGFIFRSYAMGWDRKAPGKERELVAAITRSGGSTYYADSVKGRFTISRDNAKTTVYLQMNSLKPEDTAVYYCATRRYWYYILDYGGQGTQVTVSS	high polyreactivity
QVQLVESGGGLVQAGGSLRLSCAASGRTFWSNAMGWYIQAPGKERELVAVIYTTTGNTYYADSVKGRFSISRDYAKNTVYLQMNSLKPEDTAVYYCNTRSGAFFLSKPYDYWGQGTQVTVSW	low polyreactivity
QVQLVESGGGLVQAGGSLRLSCAASGLTFAWYTMGWYRQAPGKERELVADIDQSGSTYYADSVKGRFTISRDNAKNTVYLQMNSLKPEDTAVYYCNAYWSNFLYPFDYWGQGTQVTVSS	high polyreactivity
QVQLVESGGGLVQAGGSLRLSCAASGSIIVRYAMGWYRQAPGKERELVATITFRDTSTYYADSVKGRFTISRDNAKNTVYLQMNSLKPEDTAVYYCAAVRADLWDIARYDYWGQGTQVTVSS	low polyreactivity
QVQLVESGGGLVQAGGSLRLSCAASGITFYGNAMGWYRQAPGKERELVANTYYADSVKGRFTISRDNAKNTVYLQMNSLKPEDTAVYYCATRNARYRSQPPGYDYWGQGTQVTVSS	low polyreactivity
QVQLVESGGGLVQAGGSLRLSCAASGSIFYSNTMGWYRQAPGKERELVAAISRGGSTYYADSVKGRFTISRDNAKNTVYLQMNSLKPEDTAVYYCAARYRWAPAYDYWGQGTQVTVSS	high polyreactivity
QDQLVESGGGLVQEGGSLRLSCAASGRIFVGYAMGWSRQAPGKERELVAAISSSGGRTYYADSVKGRFTISRDNAKNTVYFQMNSLQPEDTAVYYCAAGRFIWGTWALDYWGQGTQVTVSS	high polyreactivity
QVELVESAGGLVQAGGSLRLSCAASGRIFAYNAMGWYRQAPGKERELVAAISQSGGSTYYADSVKGRFTISRANAKNTVYLQLNSLKPEDTAVYYCHAVYGRQYRGYNYKYYYWGQGTQVTVSS	high polyreactivity
QVQLVESGGGLVQAGGSLRLSCAASGGTFSLNAMGWSRQAPGKERELVAAITYSTGRTHYADSVKGRFTISRDNAKNTVYLQMNSLKPEDTAVYYCAARVYGTKMDYWGQGTQVTVSS	high polyreactivity
QVQLVESGGGLVQAGGSLRLSCAASGFIFYAYVMGWYRQAPGKERELVAAISRNGGSTYYADSVKGRFTISRDNAKNTVYLQMKSLKPEDTAVYYCAALSYYRYSQEDDYWGQGTQVTVSS	high polyreactivity
QVQLVESGGGLVQAGGSLRLSCAASGFTFGPNAMGWYRQAPGKEREFVAAISWSGGSTYYADSVKGRFTISRDNAKNTVYLQMNSLKPEDTAVYYCAARYRYTRSGTMGYWGQGTQVTVSS	high polyreactivity
QVQLVESGGGLVQAGGSLRESCAASGSISAEYVMGWYRKAPGKERELVAAISVSAGTTYYADSVKGRFTISRDNAKTTVYLHMNSLKPEDTAVYYCAATDSYYWLYYYGYSPCNDYWGQGTQVTVSS	low polyreactivity
QVQLVESGGGLVQAGGSLRLSCAASGGTFYRNDMGWYRQAPGKERELVAVITYRGGSTDYADSVKGRFTISRDNAKNTVYFQMNSLKPEDTAVYYCAVDYTFSYPYEDDYWGQGTQVTVSS	low polyreactivity
LVQLVESGGRLVQAGGSLRLSCAASGNIFWYAMGWYRQAPGKERELVAAITYRGSTTYFAYSVKGRVTISRDKAKNTVYLQMNSLHPEDTAVYYCAARASYTRRHVGRPYDYWGQGTQVTVSS	high polyreactivity
QVQLVESVGGLVQAGGSLRLSCAASGRTFFKYAMGWYRQAPGKERELVAAITASGGSTYYADSVKGRFTISRDNAKNTVYLQMNSLKPEDTAVYYCAARWRSVFWEYYYWGQGTQVTLSS	high polyreactivity

Sequence	polyreactivity (PSR sort gate)
QFQLVESGGGLFQAGGSLRLSCAAYGRISLRNGMGWYRQAPGKERELVAAISRGGSTYYADSVKGRFTISRDNAKNTVYLQMNSLKPEDTAVYYCNADIRPIYGDDDYWGQSTQVTVSS	low polyreactivity
QVQLVESGGGLVQAGGSLSLSCAASGSTFTYYDMGWYRQAPGKERELVAAISSSGGRTYYSDSVKGRFTISRDNAKNTVYLQMNSLKPEDTAVYYCARVVRPTDGDYWGQGTQVTVSS	high polyreactivity
QVQLVESGGGLVQAGGSLRLSCAASGSTFLITALGWYRQAPGKEREFVADISSSDGSTYYADSVKGRFTISRDNAKNTVYLQMNSLKPEDTAVYYCAAAHVEGSYHKYYYWGQGTQVTVSS	high polyreactivity
QVQLVESGGGLVQAGGSLRLSCAASGIIFYYYAMGWYRHAPGKERELVAAISTSGTRTFYADSVKGRFTISRDNAKNTVYLQMNCLKPEDTAVYYCAARIYKPQRSSSLYRTSGYWGQGTQVTVSS	high polyreactivity
QVQLVESGGGLVQAGGSLRLSCAASGRIFKIYAMGWYRQAQGKERELVAAISRGVRTYYADSVKGRFTISRDNAKNTVYLQMNSLKPEDTAVYYCAADLLISPEFYYWGQGTQVTVSS	high polyreactivity
QVQLVESGGGLVQAGGSLRLSCAASGGIFWANAMGWHRQAPRKERELVATIHTIGDGTNYADSVKGRFTISRDNAKNTVYLQMNSLKPEDTAVYYCAAPYYYFAVYYGYIFEYDYWGQGTQVTVSS	low polyreactivity
QVQLVESGGGLVQAGGSLRLSCAASGSIFSRYAMGWYRQAPGKERELVAAISKSGGTTYYADSVKGRFTISRDNAKNTVYLQMNSLKPEDTAVYYCNAKRYRNGSIGMGYWGQGTQVTVSS	high polyreactivity
QDQLVESGGGLVQAGGSLRLSCAASGSIFGGYGMGWYRQAPGKERELVAAITSGSSTYYADSVKGRFTISRDNAKNTVYLQMNSLKPEDTAVYYCAARPYPHSAYQGDYWGRGTQVTVSS	low polyreactivity
QGQLVESGGGIVQAGCSLLLSCSASGLIFRRKTLGWYRQAPGTERELVAVISSSGSSTYYADSVKGRFTISRDNAKNTVYLQMNSLKPEDTAVYYCAARYAIGPGYDYWGQGTQVTVSS	high polyreactivity
QVQLVESGGGLVQAGGSLRLSCAASGFIFTANAMGWYRQAPGKERELVAAINWSDGGTYYADSVKGRFTISRDNAKNTVYLQMNSLKPEDTAVYYCNAQWAWTYYYWGQGTQVTVSS	low polyreactivity
QVQIVESGGGLVQAGGSLRLSCAASGRTLYQYSMGWYRQAPGKERELVAAITTSTGNTYYADSVKARFTISRDNAKYTVYSQMNSLKPEDTAVYYCAADTVWRLDYWGQGTQVTVSS	low polyreactivity
QDQLVESAGGLVQAGGSLRLSCAASVITFVRYVMGWYRQAPGKEREFVARIRWRGGSTNYADSVKGRFTISRDNAKNTVYLQMNSLKPEDTAVYYCNAVRRASSGYDYWGQGTQVTVSS	high polyreactivity
QVQLVESGGGLVQAGGSLRLICAASGSTFTQNAMGWYRQAPGKERELVAAISSSGTRTYYADSVKGRFTISRDNAKNTVYLQMNSLKPEDTAVYYCAATVYPSVYGENHYGYWGQGTKVTVSS	high polyreactivity
QVQLVESGGGLVQAGGSLRLSCAASGRIFFTNAMGWYRQAPGKERELGAAIRFSGGRTYYADSVKGRFTISGDNAKNTVYLQMNSLKPEDTAVYYCAADPPRTRYRNARFDYWGQGTQVTVSS	high polyreactivity
QVQLVESGGGIVQAGGSLRLSCAASGRILSRYAMGWYRQAPGKESDLVADISSGGRTHYADSVKGRFTISRDNAKNTVYFQMNSLKPEDSAVYYCAKDYTPYSRRLNSGGYYYWGQGTQVTVSS	high polyreactivity
QVQLVESGGGLVQAGGSLRLSCAASGLIFSWYAMGWYRQAPGKERELVAAISSGSSTNYADSVKGRFTISRDNAKNTVYLQRNSLKPEDTAVYYCAARIYYTSRLRMYYWGQGTQVTVSS	high polyreactivity
QVQLVESGGGLVQAGGSLRLSCAASGIIFGTYAMGWYRQAPGKERELVASISSRGGSTYYADTVKGRFTISRDNAKNTVYLQMNSLKPEDTAVYYCAARNAYPGNSMDSWGLGTQVTVSS	high polyreactivity
QVQLQESGGGLVQAGGSLRLSCAASGNIVDADIMGWSRQAPGKERELVASITDGGSTNYADSVKGRFTISRDYAKNTVYLQMNSLKPEDTAVYYCAAIAYPDIPTYIDYDSEYFYWGQGTQVTVSS	low polyreactivity
QVQLVESGGGLVQAGGSLRLSCADSGSTSYDYAMGWYRQAPGKERELVAAISGSSSTTYYADSVKGRFTISRDNAKNTVYLQMNSLKPEDTAVYYCNAVTTTGSGYGYWGQGTQVTVSS	low polyreactivity
QVQLVESGGGLVQAGGSLRLSCAASGSTFPPNAMGWYRQAPGKERELVAAISERGGSTYYADSVKGRFTISRDNAKNTVYLLMNSLKPEDTAVYYCAVDYYYLMYWGQGTQVTVSS	low polyreactivity
QVQLVESGGGLVQAGASLRLSCAPSGSTFYPNSMAWYRQSPGKERHLVDAITSGGSTYYADSVKGRFTISRDNSKNTVYLQMNSLKPEDTAVYYCAAQRRYHQDTTIAPGNYYYWGQGTQVTVSS	low polyreactivity
